Laboratory results reported in EP1763578B1, “TANNASE” (priority 2004, dated 2006).

Legend:
[1] = tested on: Arxula adeninivorans LS3 Tannase I (Atan1p), SEQ ID NO: 3; test: Tannase assay with rhodanine, KM determination with tannin; assay type: biochemical; details: tannin solution 0,05-0,75 mg/ml, 15 min at 30°C; Lineweaver-Burk plot; read-out: KM-Wert (Tannin)
Description: (§1) Der Nachweis der Tannase mit Hilfe des Rhodanins, wurde nach einer Methode von Sharma et al. (Sharma S, Bhat TK, Dawra RK (2000) A spectrophotometric method for assay of tannase using Rhodanine. Anal. Biochem. 279: 85-89, 2000) durchgeführt.
(§2) Als Test-Kontrolle wurden 450 µl Puffer und 50 µl eingeengter Kulturüberstand zusammenpipettiert. Als Blank-Kontrolle wurden 250 µl der Substratlösung und 250 µl Puffer zusammengegeben. Diese drei verschiedenen Ansätze wurden anschließend für 5 Min bei 30°C inkubiert. […] Nach anschließender Inkubation für 5 Min bei 30°C wurden weitere 200 µl 0,5 M KOH zugegeben. Nach wiederholter Inkubation bei 30°C für 5 Min wird die Absorbtion der verschiedenen Ansätze bei 520 nm im Spektrophotometer (UV160-A/Shimadzu) gegen Wasser gemessen. Die Absorption kann nach folgender Formel berechnet werden: ΔA520nm = (ATest-ABlank)-(AKontrolle-ABlank) [formula]
(§3) Mit Hilfe einer Eichkurve wurde dann die entstandene Gallatmenge ermittelt. Einheiten/Enzym = ((μmol gebildetes Gallat/min)*(Vf))/((0, 05)) [formula] Vf = Verdünnungsfaktor 0,05 = eingesetztes Probevolumen (in Milliliter) Eine Einheit ist definiert als µmol gebildetes Gallat pro Minute.
Zur Bestimmung des KM-Wertes wurde zu je 50 µl Tannase 250 µl Tanninlösung in Konzentrationen von 0,05 mg/ml bis 0,75 mg/ml zugegeben, alles 15 Min bei 30°C inkubiert und die Tannaseaktivität wie beschrieben ermittelt. […]

[2] = target: T1, Arxula adeninivorans LS3 Tannase II (Atan2p), SEQ ID NO: 4 (Blastobotrys adeninivorans, UniProt Q5GMI6); test: as above; assay type: biochemical; details: tannin solution 0,05-0,75 mg/ml, 15 min at 30°C; Lineweaver-Burk plot; read-out: KM-Wert (Tannin)
T1 sequence (Q5GMI6 29-448): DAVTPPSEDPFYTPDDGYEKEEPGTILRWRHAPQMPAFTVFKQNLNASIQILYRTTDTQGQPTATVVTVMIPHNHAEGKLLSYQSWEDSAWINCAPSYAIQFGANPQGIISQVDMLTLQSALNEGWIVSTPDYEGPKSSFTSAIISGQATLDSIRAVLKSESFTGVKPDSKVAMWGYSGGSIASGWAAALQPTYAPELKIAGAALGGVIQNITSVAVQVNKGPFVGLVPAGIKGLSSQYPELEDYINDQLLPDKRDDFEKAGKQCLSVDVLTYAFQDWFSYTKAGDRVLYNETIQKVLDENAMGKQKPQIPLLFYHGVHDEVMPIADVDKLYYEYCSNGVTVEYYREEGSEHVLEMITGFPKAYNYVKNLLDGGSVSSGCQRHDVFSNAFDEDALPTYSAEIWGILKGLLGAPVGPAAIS
Description: as §1, §2, §3
Zur Bestimmung des KM-Wertes wurde zu je 50µl Tannase-Probe 250µl Tanninlösung in Konzentrationen von 0,05 mg/ml bis 0,75 mg/ml zugegeben, alles 15 Min bei 30°C inkubiert und die Tannaseaktivität gemessen. […]

[3] = substrate: CCCCCCCCCC(=O)Oc1ccc([N+](=O)[O-])cc1; test: Lipase assay with p-nitrophenyl ester, native enzyme; assay type: biochemical, Arxula adeninivorans LS3; details: other: native lipase; pH 7.5; 30.0 °C
Description: (§4) Für diese Bestimmung wurde eine frische Stammlösung (3mM […] in 10 ml Propanol durch 10 Min vortexen lösen) angesetzt. Für den Messansatz wurden 850 µl 0,05 M Na-Phosphat-Puffer pH 7,5 und 100 µl der Stammlösung gemischt und anschließend 50 µl Probelösung zugegeben. Als Kontrolle wurden 900 µl Puffer und 100 µl Stammlösung zusammengegeben. Beide Ansätze wurden für 5-10 Min bei 30°C inkubiert und anschließend 1 ml Aceton zum Abstoppen der Reaktion zugegeben. Danach wurde die Absorption bei 410 nm im Spektrometer (UV160-A/Shimadzu) gegen Wasser gemessen: Die Enzymaktivität kann dann nach folgender Formel berechnet werden: Einheiten/ml Enzym = ((ΔA410nm/min Test-ΔA410nm/min Blank)*(Vf))/((14, 800)*(0, 05)) [formula] Vf = Verdünnungsfaktor 14800 I mol^-1 cm^-1= Extinktionskoeffizient von p-Nitrophenol bei 410nm (Quinn et al. 1982) 0,05 = eingesetztes Probevolumen (in Milliliter) Eine Einheit ist definiert als µmol gebildetes p-Nitrophenol pro Minute.
(§5) Da Atan2p eine sehr hohe Homologie zu Lipasen aufweist, wurde A. adeninivorans G1211/pAL-ALEU2m-ATAN2 parallel auf sekretorische Lipase-Aktivität mit p-Nitrophenyl-Caprate geprüft. Dazu erfolgte eine Anzucht in HMM + 2% Glukose bzw. HMM + 2% Xylitol, Bedingungen unter denen das native ATAN2-Gen nicht exprimiert wird, d. h. auch kein natives sekretorisches Atan2p auftritt. […]

[4] = substrate: CCCCCCCCCC(=O)Oc1ccc([N+](=O)[O-])cc1; test: Lipase assay with p-nitrophenyl ester, recombinant enzyme; assay type: biochemical, Arxula adeninivorans; details: other: recombinant lipase; pH 7.5; 30.0 °C
Description: as §4, §5

Molecule: Tannin
- Km [1]: 150 µM
- Km [2]: 1100 µM

B1: Tannase II (Atan2p nativ, native Lipase) secreted by A. adeninivorans LS3, SEQ ID NO: 4 (Blastobotrys adeninivorans) (protein)
chain: T1 sequence (Q5GMI6 29-448)
- Km [3]: 400 µM
- Vmax [3]: 0,043 µmol x min^-1

B2: Tannase II (Atan2p rekombinant, rekombinante Lipase) secreted by A. adeninivorans G1211/pAL-ALEU2m-ATAN2, SEQ ID NO: 4 (Blastobotrys adeninivorans) (protein)
chain: T1 sequence (Q5GMI6 29-448)
- Km [4]: 710 µM
- Vmax [4]: 0,036 µmol x min^-1
